Type in all cases: cell-based
One test deals with T1, human GPCR135 (Homo sapiens, UniProt Q9NSD7).
T1 sequence (Q9NSD7 1-469): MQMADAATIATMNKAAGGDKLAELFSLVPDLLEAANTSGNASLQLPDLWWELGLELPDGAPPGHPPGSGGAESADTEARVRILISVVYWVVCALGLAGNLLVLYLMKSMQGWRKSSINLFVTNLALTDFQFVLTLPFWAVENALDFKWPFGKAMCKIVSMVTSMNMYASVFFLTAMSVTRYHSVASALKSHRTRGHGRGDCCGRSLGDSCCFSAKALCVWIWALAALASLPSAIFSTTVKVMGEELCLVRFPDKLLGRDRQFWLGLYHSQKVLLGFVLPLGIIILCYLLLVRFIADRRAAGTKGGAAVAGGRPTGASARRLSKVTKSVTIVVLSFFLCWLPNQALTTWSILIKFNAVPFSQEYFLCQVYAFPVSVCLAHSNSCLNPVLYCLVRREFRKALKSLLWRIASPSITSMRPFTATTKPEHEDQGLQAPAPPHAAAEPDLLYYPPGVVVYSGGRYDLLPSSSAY
Nature of the test: Antagonism: rightward shift of relaxin-3 dose-response curve, SK-N-MC/CRE-β-gal reporter assay. Also noted: expressed in transfected cells. To be noted: pharmacological characterization. As for the experimental part: In a functional assay using SK-N-MC/CRE-β-gal cells expressing human GPCR135 (A), GPCR142 (B) or LGR7 (C), ascending concentrations of relaxin-3 (R3) were used to generate dose response curves either in the absence or presence of 10 nM, 100 nM or 1 μM R3(BΔ23-27)R/I5. For Gαi linked GPCR135 and GPCR142, the assay was performed as inhibition of forskolin-induced β-gal expression. LGR7 is linked to Gαs, therefore addition of forskolin is not necessary. The antagonism of R3(BΔ23-27)R/I5 is indicated by the rightward-shift of the relaxin-3's dose-response curve.
(§1) All peptides were tested for their GPCR135, GPCR142, and LGR7 agonist activities in SK-N-MC/CRE cells expressing the relevant receptors as described by Liu et al., 2005b. […] An increase in cAMP concentration in these cells is associated with increased β-gal expression, which can be measured using Chlorophenol Red-β-D-Galactopyranoside (CRGP) as a substrate and reading the optical absorbance at 570 nm. […] The results were analyzed using GraphPad Prism 4.0 software. […] The agonism and antagonism of peptides for rat LGR7 was assayed using a cAMP luminescence assay. […] The cAMP in the cells was measured with a cAMP detection kit (DiscoveRx HitHunter, Cat. #90-0041) according to the manufacturer's protocol. The results were analyzed using GraphPad Prism 4.0 software.

The next test deals with T2, human LGR7 (Homo sapiens, UniProt Q9HBX9).
T2 sequence (Q9HBX9 1-757): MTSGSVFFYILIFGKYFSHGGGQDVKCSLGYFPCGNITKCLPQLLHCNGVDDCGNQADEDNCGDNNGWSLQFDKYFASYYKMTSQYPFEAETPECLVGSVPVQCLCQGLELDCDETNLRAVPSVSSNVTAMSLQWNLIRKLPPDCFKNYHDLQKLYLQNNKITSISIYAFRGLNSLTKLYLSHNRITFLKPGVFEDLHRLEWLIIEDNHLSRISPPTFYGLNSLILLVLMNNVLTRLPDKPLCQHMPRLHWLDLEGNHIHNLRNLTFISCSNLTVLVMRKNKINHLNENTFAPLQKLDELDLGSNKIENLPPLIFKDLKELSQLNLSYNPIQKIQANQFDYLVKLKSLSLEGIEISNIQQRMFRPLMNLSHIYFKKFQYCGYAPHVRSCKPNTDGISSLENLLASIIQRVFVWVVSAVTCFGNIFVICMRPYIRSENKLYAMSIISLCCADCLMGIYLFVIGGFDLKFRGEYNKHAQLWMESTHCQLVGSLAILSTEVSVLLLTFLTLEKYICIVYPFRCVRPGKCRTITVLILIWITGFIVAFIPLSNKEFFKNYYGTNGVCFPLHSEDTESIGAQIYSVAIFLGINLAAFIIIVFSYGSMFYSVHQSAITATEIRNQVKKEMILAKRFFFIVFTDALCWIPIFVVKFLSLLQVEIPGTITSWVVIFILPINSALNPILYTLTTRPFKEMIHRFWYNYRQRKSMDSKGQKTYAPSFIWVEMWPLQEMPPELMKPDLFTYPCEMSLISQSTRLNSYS
The test is described as follows: Agonist assay, stimulation of β-gal expression in SK-N-MC/CRE-β-gal cells. On the set-up: expressed in transfected cells; host or cells: SK-N-MC/CRE-β-gal. How it is done: (§2) FIG. 1 provides a characterization of mutant relaxin-3 peptides as ligands for human GPCR135, GPCR142, and LGR7. The truncated peptides were tested for their GPCR135 and GPCR142 agonist activity using SK-N-MC/CRE-β-gal cells expressing either human GPCR135 (A) or GPCR142 (B). Agonists for GPCR135 or GPCR142 inhibit forskolin induced β-galactosidase (β-gal) expression. The LGR7 agonist activity of the truncated peptides was tested using SK-N-MC/CRE-β-gal cells expressing Gαs-linked human LGR7 (C). Human relaxin-3 was used as positive control in both cases. β-gal expression was measured by colorimetric assay using CPRG as the substrate and reading the absorbance at 570 nm.
as §1, with “protocol. […]” for “protocol. The results were analyzed using GraphPad Prism 4.0 software.”

The next test addresses human GPCR142 (Homo sapiens, UniProt Q8TDU9). Nature of the test: Agonist assay, inhibition of forskolin-induced β-gal expression in SK-N-MC/CRE-β-gal cells. Also noted: expressed in transfected cells. Conditions: human GPCR142 agonist response, mean ± SEM; NA = no agonist activity observed. How it is done:
as §2
as §1, with “protocol. […]” for “protocol. The results were analyzed using GraphPad Prism 4.0 software.”

Sequence of human GPCR142 (Q8TDU9 whole entry): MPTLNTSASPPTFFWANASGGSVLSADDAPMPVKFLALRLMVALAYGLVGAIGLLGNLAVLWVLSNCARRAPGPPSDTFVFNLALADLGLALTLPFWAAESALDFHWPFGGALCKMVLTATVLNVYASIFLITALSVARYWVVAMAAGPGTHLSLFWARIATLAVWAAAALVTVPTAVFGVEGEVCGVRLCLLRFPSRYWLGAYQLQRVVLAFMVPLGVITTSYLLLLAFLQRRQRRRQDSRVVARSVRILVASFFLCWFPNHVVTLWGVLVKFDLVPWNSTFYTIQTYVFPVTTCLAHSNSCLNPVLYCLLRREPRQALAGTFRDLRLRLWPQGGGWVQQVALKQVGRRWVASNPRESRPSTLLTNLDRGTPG

With “R3(BΔ23-27)R: Relaxin-3 mutant: B-chain SEQ ID NO:15 (Gly23-Trp27 deleted plus C-terminal Arg), relaxin-3 A-chain SEQ ID NO:13”, in the test with human GPCR135, the “GPCR135 antagonist character” value is recorded as “GPCR135 antagonists”. Moreover, the concentration for a half-maximal effect (EC50) with human LGR7 (human LGR7 agonist response, mean ± SEM, NA = no agonist activity observed) was greater than 1000 nM; in the test with human GPCR142, greater than 1000 nM. In addition, the “agonist activity at human LGR7” value in the test with human LGR7 (stimulation of β-gal expression) is on record as “no LGR7 agonist activity”.
